From patent US20110152183A1 (Novo Nordisk, published 2011) come the findings set out here.

Residue numbers refer to the chain shown, from its start. Bridge positions count the residues as written; N and C are the ends.

The target of test [1] is T1, Amylin 3(a) receptor (human calcitonin receptor (CTa) coexpressed with RAMP-3) on BHK570 cells (human, UniProt P30988 25-474).
T1 sequence (P30988 whole entry, looked up): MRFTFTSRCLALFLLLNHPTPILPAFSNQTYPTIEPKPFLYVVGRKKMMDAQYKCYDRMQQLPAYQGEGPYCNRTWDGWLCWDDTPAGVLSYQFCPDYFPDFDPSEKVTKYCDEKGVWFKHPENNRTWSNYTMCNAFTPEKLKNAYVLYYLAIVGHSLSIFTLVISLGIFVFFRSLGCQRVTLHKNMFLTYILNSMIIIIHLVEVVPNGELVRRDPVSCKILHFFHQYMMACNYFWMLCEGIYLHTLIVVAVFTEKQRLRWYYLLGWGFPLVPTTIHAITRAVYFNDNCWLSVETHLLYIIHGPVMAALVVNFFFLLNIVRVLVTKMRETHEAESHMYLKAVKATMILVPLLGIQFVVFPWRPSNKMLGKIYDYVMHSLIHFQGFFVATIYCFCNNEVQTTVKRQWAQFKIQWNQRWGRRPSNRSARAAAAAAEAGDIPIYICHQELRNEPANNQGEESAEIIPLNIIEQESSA
T1 sequence (O60896 whole entry, looked up): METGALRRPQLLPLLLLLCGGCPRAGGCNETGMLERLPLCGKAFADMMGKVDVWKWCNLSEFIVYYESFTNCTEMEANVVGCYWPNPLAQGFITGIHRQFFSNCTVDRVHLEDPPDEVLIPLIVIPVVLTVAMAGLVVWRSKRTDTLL
In words: cell-based or functional assay.

For test [2], the target named is Amylin 3(a) receptor (human calcitonin receptor (CTa) coexpressed with RAMP-3) on BHK570 cells (human, UniProt P30988 25-474). In words: cell-based or functional assay. The source holds these as a separate data set.

B1: Amylin (1-8)-[Arg11,Arg18]sCT (9-27)-amylin (33-37) (peptide)
peptide: KCNTATCALGRLSQELHRLQTYPRTNTGSNTY
HELM: PEPTIDE1{K.C.N.T.A.T.C.A.L.G.R.L.S.Q.E.L.H.R.L.Q.T.Y.P.R.T.N.T.G.S.N.T.Y.[am]}$PEPTIDE1,PEPTIDE1,2:R3-7:R3$$$V2.0; N-terminus assumed
SMILES: CC(C)C[C@H](NC(=O)[C@H](C)NC(=O)[C@@H]1CSSC[C@H](NC(=O)[C@@H](N)CCCCN)C(=O)N[C@@H](CC(N)=O)C(=O)N[C@@H]([C@@H](C)O)C(=O)N[C@@H](C)C(=O)N[C@@H]([C@@H](C)O)C(=O)N1)C(=O)NCC(=O)N[C@@H](CCCNC(=N)N)C(=O)N[C@@H](CC(C)C)C(=O)N[C@@H](CO)C(=O)N[C@@H](CCC(N)=O)C(=O)N[C@@H](CCC(=O)O)C(=O)N[C@@H](CC(C)C)C(=O)N[C@@H](Cc1c[nH]cn1)C(=O)N[C@@H](CCCNC(=N)N)C(=O)N[C@@H](CC(C)C)C(=O)N[C@@H](CCC(N)=O)C(=O)N[C@H](C(=O)N[C@@H](Cc1ccc(O)cc1)C(=O)N1CCC[C@H]1C(=O)N[C@@H](CCCNC(=N)N)C(=O)N[C@H](C(=O)N[C@@H](CC(N)=O)C(=O)N[C@H](C(=O)NCC(=O)N[C@@H](CO)C(=O)N[C@@H](CC(N)=O)C(=O)N[C@H](C(=O)N[C@@H](Cc1ccc(O)cc1)C(N)=O)[C@@H](C)O)[C@@H](C)O)[C@@H](C)O)[C@@H](C)O
In the case of B1, in test [1], the “EC50 (pM) in luciferase assay” value is 3 pM.

B2: [His1]amylin (1-8)-[His11,His18,His24]sCT (9-27)-amylin (33-37) (peptide)
peptide: B1 peptide with K1H, R11H, R18H, R24H
HELM: PEPTIDE1{H.C.N.T.A.T.C.A.L.G.H.L.S.Q.E.L.H.H.L.Q.T.Y.P.H.T.N.T.G.S.N.T.Y.[am]}$PEPTIDE1,PEPTIDE1,2:R3-7:R3$$$V2.0; N-terminus assumed
SMILES: CC(C)C[C@H](NC(=O)[C@H](C)NC(=O)[C@@H]1CSSC[C@H](NC(=O)[C@@H](N)Cc2c[nH]cn2)C(=O)N[C@@H](CC(N)=O)C(=O)N[C@@H]([C@@H](C)O)C(=O)N[C@@H](C)C(=O)N[C@@H]([C@@H](C)O)C(=O)N1)C(=O)NCC(=O)N[C@@H](Cc1c[nH]cn1)C(=O)N[C@@H](CC(C)C)C(=O)N[C@@H](CO)C(=O)N[C@@H](CCC(N)=O)C(=O)N[C@@H](CCC(=O)O)C(=O)N[C@@H](CC(C)C)C(=O)N[C@@H](Cc1c[nH]cn1)C(=O)N[C@@H](Cc1c[nH]cn1)C(=O)N[C@@H](CC(C)C)C(=O)N[C@@H](CCC(N)=O)C(=O)N[C@H](C(=O)N[C@@H](Cc1ccc(O)cc1)C(=O)N1CCC[C@H]1C(=O)N[C@@H](Cc1c[nH]cn1)C(=O)N[C@H](C(=O)N[C@@H](CC(N)=O)C(=O)N[C@H](C(=O)NCC(=O)N[C@@H](CO)C(=O)N[C@@H](CC(N)=O)C(=O)N[C@H](C(=O)N[C@@H](Cc1ccc(O)cc1)C(N)=O)[C@@H](C)O)[C@@H](C)O)[C@@H](C)O)[C@@H](C)O
Consider B2, for which the “EC50 (pM) in luciferase assay” value in test [2] amounted to 10 pM.
As for {4‑carboxy‑4‑(19-carboxy-nonadecanoylamino)butyryl}-KCNTATCALGRLSQELHRLQTYPRTNTGSNTY-NH2 (disulfide 2-7), the “EC50 (pM) in luciferase assay” value in test [1] was 50 pM.
